Consider 41 sequences from the nanobody polyreactivity screen of Harvey et al. (2022).

A short description of this series: yeast display, Sf9 membrane polyspecificity reagent, FACS + sequencing; frameworks hold sequencing errors. An outline of the steps:
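Galactose induction of a Saccharomyces cerevisiae BJ5465 synthetic nanobody display library ran 36–48 hours. The cells were then stained for 1 hour at 4 °C with 10% biotinylated, detergent-solubilized Sf9 membrane reagent, pulled down on streptavidin microbeads and FACS-sorted into low and high (top ~1%) gates on expression and reagent-binding fluorescence. Labels for polyreactivity follow the gate of origin.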
Turning to “QVQLVESGGGLVQAGVSLRLSCAASGSTFSNYAMGWYRQAPGKERELVAGIDWSGGSTYYADSVKGRFTISRDNEKITVYLQMNSLKPEDTAVYYCAKRVWYHGRKLRGYYWGQGTQVTVSS”, the “polyreactivity (PSR sort gate)” value is reported as “low polyreactivity”.
In the case of “QVHLVESGGGLVQAGASLRLSCAASGFTFGVNAMGWSRQAPGKERELVAVITSGGNTYYADSVKGRFTISRDNAKNTVYLHMNSLNPEDTAVYYCAAYGRASWERDYWGKGTQVTVSS”, the “polyreactivity (PSR sort gate)” value is on record as “low polyreactivity”.
Regarding “QVQLVESGGGLVQAGGSLRLSCAASGSTFKRYAMGWYRQAPGKERELVASISSGGSTNYADSVKGRFTISRDNAKNTVYLQMNSLKPEDTAVYYCAVSYRSFRYYWERYYSWGQGTQVTVSS”, the “polyreactivity (PSR sort gate)” value was “high polyreactivity”.
For “QDQHVESGGGLVQAGGSLRLSCAASGITSKNYAMGWSRQAPGKERELVAVISGRGGSTYYADSVKGRFTITRDNAKNTVYLQMNCLKPEDTAVYYCAAYGNQRRGAYPYKYDYWGQGTQVTVSS”, the “polyreactivity (PSR sort gate)” value is “high polyreactivity”.
As for “QVQLVESGGGLVQAGGSLRLSCAASGSTFAGNAMGWYRQAPGKERELVAAISSSGAGTYYADSVKGRFTISRDNAKNTVYLQMNSLKPEVTAVYYCNVGSRALRRRVRSVSFDYWGQGTQVTVSS”, the “polyreactivity (PSR sort gate)” value is given as “low polyreactivity”.
The value for “QVQLVESGGGLVQAGGSLRLSCADSGSIIYYAMGWNRQAPGKEREFVAAITKSGGSTYYADSVKGRFTISRDNAKNTVYLQMNSLKPEDTAVYYCAARGTWAGFYYWGQGTQVTVSS” was “high polyreactivity”.
As for “QVQLVESGGGLDQAGGSLRLSCAASGFTFYPNAMGWYRQAPGKERELVAAINSGGSTYYADSVKGRFTISRDNAKNTVYLQMNSLKPEDTAVYYCAAYGKRGAVAFYYWGQGTQVTVSS”, the “polyreactivity (PSR sort gate)” value was “high polyreactivity”.
In the case of “QVQLVESGGGLVQAGGSLRLSCAASGSISTYYAMGWYRQAPGKERELVAAITRNGGSTYYADSVKGRFTISRDNSKNTVYLQMNSLKPEDTAVYYCAARNAFGTYYYWGQGTQVTVSS”, the “polyreactivity (PSR sort gate)” value is “high polyreactivity”.
The entry for “QVQLVESGGGLVQSGGSLRLSCAASGSTFDYNAMGWYRQPPGKERELVAAINSGASTYYADSVKGRFTISRDNAKNTVYLLMNSLKPEDTAVYYCAKDYLYIGDYWGQGTQVTVSS” is “low polyreactivity”; for “QVQLVESGGGLVQAGGSLRLSCAASGSTFGLNAMGWYRQAPGKERELVAAITWSGASTYYADSVKGRFTISRDNAKNTVYLQMNSLKPEDTAVYYCAKDIPTDYKDVNYWGQGTQVTVSS” it is “low polyreactivity”; for “QVQLVESGGGLVQAGGSLRLICAASGRIFALYAMGWYRQAPGKEREFVATITRGASTNYADSVKGRFTISRDNAKNTVYLQMNSLKPVDTAVYYCAAAGYKAAGRVVASYYWGQGTQVTVSS” it is “high polyreactivity”.
Turning to “QVQLVESGGGLVQAGGRLRLSCAASGFIFAYYAMGWYRQAPGKERELVAAITIDGSTNYADSVKGRFTISRDNAKNTVYLQMNSLKPEDTAVYYCAAADHPPVCYGYWGQGTQVTVSS”, the “polyreactivity (PSR sort gate)” value was “low polyreactivity”.
“QVQLVESGGGLVQAGGSLRLSCAASGSIFTRYAMGWYRQAPGKEREFVAAITTRGGSTYYADSVKGRFTISRDNAKNTVYLQMNSLKPEDTAVYYCNTRGKSGLWWYNYWGQGTQVTVSS”: the “polyreactivity (PSR sort gate)” value is “high polyreactivity”.
The entry for “QVQLVESGGGLVQAGGSLRLSCAASGRTFKYYAMGWYRQAPGKERELVAAISGSGGSTYYADSVKGRFTISRDNAKNTVYLQMNSLKPEDTAVYYCATGGGKTRSYNYWGQGTQVTVSS” is “high polyreactivity”; for “QVQLVESGGGLVQAGGSLRLSCAASGSTFFRYAMGWYRQAPGKEREFVAAITSSGGNTYYADSVKGRFTISRDNAKNTVYLQMNSLKPEDTAVYYCAAVWYSPYVKYNYWGQGTQVTVSS” it is “low polyreactivity”.
Turning to “QVQLVESGGGLVQAGGSLRLSCAASGRTFGYYDMGWYRQAPGKGRELVAAITYSGGNTYYADSVKGRFTISRDNAKITVYLQMNSLKPEDTAVYSCAARSSFFPSYSRYDYWGQGTQVTVSS”, the “polyreactivity (PSR sort gate)” value is listed as “high polyreactivity”.
Take “QVQLVESGGGLVQAGGRLRLSCAASGRIFTRYAMGWYRQAPGKERELVAAINYRGSSTYYADSVKGRFTISRDNAKNTVYLQMNSLKPEDTAVYYCNTYGQTDTYWRYYYWGQGTQVTVSS”: the “polyreactivity (PSR sort gate)” value is given as “high polyreactivity”.
The value for “QVQLVESGGGLVQAGGSLRLSCAASGITFDENTMGWYRQATGKERELVASISNGGNTYYADSVKGRFTISRDNAKNTVYLQMNSLKPEDSAVYYCAARYGYYYSRYDHWGQGTQVTVSS” was “low polyreactivity”; that for “QVQLVESGGGLVQAGGSLRLSCASSGSTFYPNAMGWYRQAPGKERELVAAISRSGGSTYYADSVKGRFTISRDNAKNTVYLQMNSLKPEDTGVYYCAADGRSPSRYDYWGQGTQVTVSS” was “low polyreactivity”; that for “QVQLQESGGLVQAGGSLRLSCAASGSISGRNVMGWYRQAPGKEREFVASITDGSSTNDADSVIGRFTISRDNAKNTVYLQMNSLKPKDTAVYYCAAYAHRAKSFGYWGRGTQVTVSS” was “low polyreactivity”.
The entry for “QVQLVESGGGLVQAGGSLRLSCAASVYGMGWYRQAPGKERELVAAISNGGTTYYADSVKGRFTISRDNAKNTVYLQMNSLKPEDTAVYYCARSYRSDGSRFGYWGQGTQVTVSS” is “low polyreactivity”; for “QVQLVESGGGLDQAGGSLRLSWAASGGIFIYNAMGWYRQPPGKEREVVAAINISGGNTYYADSVKGRFTISRDNAKNTVYLQMNSLKPEDTAVYYCAARYASSWWIRYYFWGQGTQVTVSS” it is “high polyreactivity”; for “QVQLVESGGGLVQAGGSLRLSCAASGNTYLYYGMGWYRQSPGKERDLVAAITQSGGTTYYADSVKGRFTISRDNAKNTVYLQLNSLKQEDTAVYYCAATRYYYYWYVYDDRGDYWGQGTQVTVSS” it is “low polyreactivity”.
The value for “QVQLVESGGGLVQAGGSLRLSCAASGRIFYSNAMGWYRQAPGKERELVAAISGSTDSTYYADSVKGRFTISRDNAKNTDYLQMNSVKPEDTAVYYCAAADYWFYYGYYLTMDFWGQGTQVTVSS” was “low polyreactivity”.
With “QVQLVESGGGLVQAGGSLRLSCAASGYTFYRNAMGWYRQAPGKERELVASLRDDGSTYYADSEKGRFTISRDNAKNTVYLHMNSLKPEDTAVYYCNSDYPYIWHKGARYWHENDYWGQGTQVTVSS”, the “polyreactivity (PSR sort gate)” value is given as “low polyreactivity”.
“QVQLVESGGGLVQAGGSLRLSCAASGITFSHNAMGWYRQAPGKERELVAVIRWSGGRTYYADSVKGRFTISRDNAKNTVYLQMNSLKPEDTAVYYCAARPSTAFPYGKIMDYWGQGTQVTVSS”: the “polyreactivity (PSR sort gate)” value is “low polyreactivity”.
Take “QVQLVESGGGLVQAGGSLRLSCAASGRTFKFNAMGWYRQAPGKERELVAGITWTGSTTSYADSVKGRFTISRDNAKNTVYLQMNSLKPEDTAVYYCDADKIRFWYHGFYYRGQGTQVTVSS”: the “polyreactivity (PSR sort gate)” value was “low polyreactivity”.
The entry for “QVQLVESGGGLVQAGGSLRLSCAASGGTLAYYAMGWYRQAPGKERELVAAITRSGGSTYYSDSVKGRFTISRDNAKNTVYLQMNSLNPEVTAVYYCAALLAYWKNRWHIEYDYWGQGTQVTVSS” is “low polyreactivity”; for “QVHLVESGGGLVQAGGSLRLSCAASGSIFALYAMGWYRQAPGKERELVARISYSGGRTYYADSVKGRFTISRDNAKNTVYLQMNSLKPEDTAVYYCATRSFKWSFVGYDYWGQGTQVTVSS” it is “high polyreactivity”; for “QVQLVESGGGLVQAGGSLRLSCAASGFTFSWYAMGWSRQAPGKERELVAGISYSGTRTFYADSVKGRFTISRDNAKNTVYLQMNSLTPEDTAVYYCAAVVPGRTVLQPEYDYWGQGTQVTVSS” it is “low polyreactivity”.
In the case of “QVQLVESGGGLVQAGGSLRLSCAASGRIFVYNVMGWYRQAPGKERELVAAISWGTGSTYADSVKGRFTISRDNAKNSVNLQMNSLKPDDTAVYYCAKESTVRRYDYWGLGTQVTVSS”, the “polyreactivity (PSR sort gate)” value is on record as “low polyreactivity”.
The value for “QVQLVESGGGLVQAGGSLRLSCAASGIIFKRYAMGWYRQAPGKERELVATITRDGRTSYADSVKGRFTISRDNAKNTVYLQMNSLKPEDTAVYYCNKRGTYAPPTPGNLFDYWGQGTQVTVSS” was “low polyreactivity”; that for “QVQLVESGGGLVQAGRSLRLTCAASGRIFRRYAMGWSRQAPGKERELVAAIRTSGGNTYYADSVKGRFTISRDNAKNTVYLQMNSLKPEDTAVYYCAAERGRLVAIASDYWGQGTQVTVSS” was “high polyreactivity”; that for “QVQLVESGGGLVQAGGSLRLSCAASRLTFQQYAMGWYRQAPGKERELVAAITSDGASTNYADSVKGRFTISRDYAKNTVYLQMNSLKPEDTAVYYCAARRRSRQYRYDYWGQGTQVTVSS” was “high polyreactivity”.
As to “QVQLVESGGGLVQAGGSLRLSCAASGRTFILNAMGWYRQAPGKERELVAAISWSGGSTYYADSVKGRFTISRDTAKNTVYLQMNSLKPEDTAVHYCATVRAWIPSGDYEYWGQGTQVTVSS”, the “polyreactivity (PSR sort gate)” value is “low polyreactivity”.
The entry for “QLQLVESGGGLFQAGGSLRLSCAPSGFIFTAYTMGWYRQAHGKESELVAAIDSGGGTYYADYVKGRFTISRYNAKNTVYLQIHSLKPDDTAVYYCAADPAKSRAGDFDYWGQGTQVTVSS” is “high polyreactivity”; for “QVQLVESGEGLVQAGGSLSLSCAASGRIFYAYVMGWYRQAPGKERELVAAIDRRSTYYADSVKRRFTISRDNAKNTVFFQMNSLKPEDTAVYYCAARSTYSYYIRGYWGLGTQVTVSS” it is “high polyreactivity”; for “QVQLVESGGGLVQAGGSLRLSCAASGSTFVSYAMGWYRQAPGKERELVAAISISDSSTYYADSVKGRFSISRDNAKNTVYLQMNSLKPEDTAVYYCNRYDFWGQGTQVTVSS” it is “low polyreactivity”.
The value for “QVQLVESGGGLVQAGGSLRLSCAASGFTSTAYAMGWYRQAPGKERELVAVISSGSSTHYADSVKGRFTISRDNAKNTVYLQMNSLKPEDTAVYYCAARIRTRYFTGFYYWGQGTQVTVSS” was “high polyreactivity”; that for “QVQLVESGGGLVQAGGSLRLSCAASGRTFYYYAMGWHRQAPGKERELVARIRSGGSTNYADSVKGRFTISRDNAKNTVYLQMNSLKPEDTAVYYCAAVRPPTPSRRREDYWGQGTQVTVSS” was “low polyreactivity”; that for “RVQLQESGGGLVQAGGSLRLSCAASGNIFDTDIMGWYRQAPGKESELVASITDGGSTTYADSEKGRFTISRDNAKNTVYLQMNSLKPEDTAVYYCAADQGRYGIIGWDDYWGQGTQVTVSS” was “low polyreactivity”.
